Paper PMC11276760

Biological target: integrin β1 (on KYSE410 ESCC cells) (UniProt P05556)
Test: flow cytometry (cell binding)
Conditions: 0.01 M PBS, 4.5 g/L glucose, 5 mM MgCl2, 1 mg/mL BSA, 0.1 mg/mL yeast tRNA, 30 min on ice, ~1e5 cells, pH not stated

Sequence of integrin β1 (on KYSE410 ESCC cells) (P05556 21-798): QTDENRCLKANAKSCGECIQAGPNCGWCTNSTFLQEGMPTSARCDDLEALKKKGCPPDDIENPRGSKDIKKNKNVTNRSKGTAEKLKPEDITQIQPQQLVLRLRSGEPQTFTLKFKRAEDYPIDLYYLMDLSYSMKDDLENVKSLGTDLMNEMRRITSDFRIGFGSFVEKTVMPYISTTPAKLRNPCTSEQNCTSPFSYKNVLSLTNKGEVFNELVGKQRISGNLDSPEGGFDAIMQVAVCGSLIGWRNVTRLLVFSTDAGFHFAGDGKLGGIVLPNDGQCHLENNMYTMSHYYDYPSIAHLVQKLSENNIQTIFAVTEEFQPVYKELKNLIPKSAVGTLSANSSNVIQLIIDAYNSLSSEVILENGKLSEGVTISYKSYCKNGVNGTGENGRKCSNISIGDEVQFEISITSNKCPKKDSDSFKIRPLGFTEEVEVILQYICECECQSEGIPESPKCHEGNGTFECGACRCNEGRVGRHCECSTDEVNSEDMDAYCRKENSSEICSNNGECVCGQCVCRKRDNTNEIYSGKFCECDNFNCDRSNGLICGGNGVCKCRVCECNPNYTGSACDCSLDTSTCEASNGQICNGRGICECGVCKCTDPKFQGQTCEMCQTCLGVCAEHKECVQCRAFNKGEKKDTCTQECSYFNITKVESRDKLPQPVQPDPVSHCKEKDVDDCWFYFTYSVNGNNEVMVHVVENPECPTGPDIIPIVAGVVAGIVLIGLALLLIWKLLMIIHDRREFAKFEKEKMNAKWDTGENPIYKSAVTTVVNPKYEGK

**Q.** “CGCGAATGCTATCGGGGCTAAGTATCAAAATGAGC [A2(35)]” was tested. Which Kd did it give?
**A.** The Kd was 58.1 nM.

**Q.** With “CGTCGTCGTCGTCGTCGTTTTCGCGAATGCTATCGGGGCTAAGTATCAAAATGAGC / ACGACGACGACGACGACGTTTCGCGAATGCTATCGGGGCTAAGTATCAAAATGAGC [BAD (bivalent aptamer-DNA carrier)]” as the sequence, how does the Kd read?
**A.** The Kd was 7.7 nM.
